Drawing on PMC4877600, this text covers Kd for two sequences.

A word on the Kd: it is the concentration at which binding is half-saturated.

The data set concerns human immunoglobulin E (IgE) (Homo sapiens). The experiment in a line: fluorescence bead-binding assay (thermal elution). Particulars: IgE on beads; selection buffer as printed: 44.5 mM Tris base, 44.5 mM bisboronic acid (sic), 50 mM NaCl, pH 8.5; 0-100 nM DNA, room temperature, 2 h; IgE beads 3x10^4 per ….

With “GCCTGTTGTGAGCCTCCTGTCGAAACTAGACCGGGAGCAAAACGGCAGATTGGGGCAAGGCCGGTTGAGCGTTTATTCTTGTCTCCC [SIGE7]”, the Kd came out at 0.018 µM. This lies in the double-digit nanomolar range.
On to “GCCTGTTGTGAGCCTCCTGTCGAAGATGTAGGCCATCCTGTGGGGGTACGGGGCGGGCTGTGGTTTGAGCGTTTATTCTTGTCTCCC [SIGE5]”, for which the Kd came to 0.01 µM. Against the preceding sequence, the Kd is about 1.8-fold lower.
